Reference: US20090311237A1, “Combination therapy using a soluble hyaluronidase and a bisphosphonate” (priority 2008, published 2009)

Assays:
Sprague Dawley rats = assay: Injection site reactions (gross ISR incidence, lesion area) after intradermal injection of zoledronic acid with or without rHuPH20; type: in vivo, rat; conditions: for shift of half maximal effect (EC50) of ZA concentration vs lesion area curve: with vs without 10,000 U/mL rHuPH20
Method: A rodent model of local injection site injury caused by ZA injection was employed for the study. […] Injection into the dermis facilitates external visualization and assessment of the irritant.
Nine to ten week old female Sprague Dawley rats, having approximate body weight of 200-250 grams, were employed for the study. One day prior to injection, rats were shaved and hair on the back and flank area were removed by Nair® cream (exposure less than 1 min to depilation cream) followed by deep wash with warm tap water. On the day of dosing, all rats were injected intradermally in flank area (one or two injection spots per side), with 0.1 or 0.2 mL as indicated of zoledronic acid solution, with or without rHuPH20, at each corresponding concentration as shown in study design table. Injection site appearance was observed and quantified by blind assessment each day following the injection until the end of the study, at which time animals were sacrificed and the skin around the dosing area as well as a part of the skin that was not effected by the dosing were collected and fixed in 10% neutral buffered formalin (NBF) and further embedded in paraffin, 5 μm sections were cut for H&E stain and histopathology evaluation.
Lesion area was calculated by the following formula: W×L×¼π. Quantitative results were analyzed using one-way analysis of variance (ANOVA) method, followed by Dunnett's comparison method (Prizm 4 program). The probability values of less than 0.05 (two-tailed) were used as the critical level of significance for all tests. Groups with a sample size of two were excluded from analysis. If the sample size was 2 for the control group, there were no statistical analyses at that interval for any of the groups. Histopathologic findings were characterized by semi-quantitative analysis of necrosis and infiltration in the skin tissue. The incidences of each finding were compared with control groups by Chi-square test.
Prior to ZA intradermal injection, rats were randomized by body weight into 7 groups of 1 or 2 rats per group (Table 2). Rats were injected with either 0.1 mL or 0.2 mL of each corresponding concentration intradermally at two separate locations on each shaved flank side for a total of 4 injections for each animal. Injection sites were observed daily post-injection for four days. Pictures of injection site reaction (ISR) area were captured by digital camera and lesion area was scored for induration, erythema, or ulceration. Two perpendicular diameters (width & length) of injection site lesion were measured by microcaliper. The lesion area was defined as the area bounded by the outer edge of the erythemic zone. Upon completion of the study, the animals were euthanized and skin at the injection site and from an untreated area of the back of the rat were excised, mounted flat onto a piece of cardboard, and placed in 10% NBF.
A series of experiments were conducted in which various dosing concentrations of rHuPH20 were tested for the ability to reduce acute injection site lesions. Prior to ZA intra-dermal injection, rats were randomized by body weight into 11 groups of 2 rats per group. Rats were injected intradermally with 0.1 mL of each co-formulated solution as shown in Table 5 and observed daily with ISR development assessed as in Section B. Four days after injection, rats were sacrificed and the skin at the injection site as well as untreated skin from the back was excised, mounted flat onto a piece of cardboard, and placed in 10% NBF.
Prior to ZA intra-dermal injection, rats were randomized by body weight into 6 groups of 3 rats per group (Table 6). Rats were intradermally injected with 0.1 mL of each corresponding co-formulated solution at two separate locations, two on each shaved flank side, for a total of 4 injections for each animal. Injection sites were observed daily with ISR development assessed as in Section B for 6 days. […]

[1] = Hyaluronidase activity microturbidity (turbidometric) assay; type: biochemical; conditions: purified soluble rHuPH20 (Gen1, 5 L bioreactor); USP reference standard
Method: Hyaluronidase activity can be assessed using methods well known in the art. In one example, activity is measured using a microturbidity assay. This is based on the formation of an insoluble precipitate when hyaluronic acid binds with serum albumin. The activity is measured by incubating hyaluronidase with sodium hyaluronate (hyaluronic acid) for a set period of time (e.g. 10 minutes) and then precipitating the undigested sodium hyaluronate with the addition of acidified serum albumin. The turbidity of the resulting sample is measured at 640 nm after an additional development period. […] Following incubation with hyaluronidase, the residual biotinylated hyaluronic acid substrate is detected using an avidin-peroxidase reaction, and compared to that obtained following reaction with hyaluronidase standards of known activity.
Hyaluronidase activity of soluble rHuPH20 in samples such as cell cultures, purification fractions and purified solutions was determined using a turbidometric assay, which based on the formation of an insoluble precipitate when hyaluronic acid binds with serum albumin. The activity is measured by incubating soluble rHuPH20 with sodium hyaluronate (hyaluronic acid) for a set period of time (10 minutes) and then precipitating the undigested sodium hyaluronate with the addition of acidified serum albumin. […]

B1: rHuPH20: soluble form of human PH20 hyaluronidase recombinantly expressed in Chinese Hamster Ovary (CHO) cells (protein, listed as Homo sapiens)
chain: LNFRAPPVIPNVPFLWAWNAPSEFCLGKFDEPLDMSLFSFIGSPRINATGQGVTIFYVDRLGYYPYIDSITGVTVNGGIPQKISLQDHLDKAKKDITFYMPVDNLGMAVIDWEEWRPTWARNWKPKDVYKNRSIELVQQQNVQLSLTEATEKAKQEFEKAGKDFLVETIKLGKLLRPNHLWGYYLFPDCYNHHYKKPGYNGSCFNVEIKRNDDLSWLWNESTALYPSIYLNTQQSPVAATLYVRNRVREAIRVSKIPDAKSPLPVFAYTRIVFTDQVLKFLSQDELVYTFGETVALGASGIVIWGTLSIMRSMKSCLLLDNYMETILNPYIINVTLAAKMCSQVLCQEQGVCIRKNWNSSDYLHLNPDNFAIQLEKGGKFTVRGKPTLEDLEQFSEKFYCSCYSTLSCKEKADVKDTDAVDVCIADGVCIDAFLKPPMETEEPQIFY
modifications: soluble rHuPH20 1-447
notes: soluble form of human PH20 hyaluronidase recombinantly expressed in Chinese Hamster Ovary (CHO) cells
rHuPH20 concentration with maximal effect on ISR formation (Sprague Dawley rats; rat ID model, preliminary experiments): 10,000 U/mL
suppression of injection site lesion formation (Sprague Dawley rats; rat ID, 10,000 U/mL rHuPH20 co-formulated with ZA up to 0.05 mg/mL): complete suppression
threshold of rHuPH20 in lesion area reduction (Sprague Dawley rats; rat ID, all ZA concentrations tested (0.05 to 0.4 mg/ml)): 100 U/mL
rHuPH20 concentration at which maximal activity was reached (Sprague Dawley rats; rat ID, regardless of ZA concentration (0.05 to 0.4 mg/ml)): 1000 U/mL
shift of half maximal effect (EC50) of ZA concentration vs lesion area curve (Sprague Dawley rats; rat ID, day 2): approximately 2.4 fold
shift of half maximal effect (EC50) of ZA concentration vs lesion area curve (Sprague Dawley rats; rat ID, day 3): ~3.3 fold
shift of half maximal effect (EC50) of ZA concentration vs lesion area curve (Sprague Dawley rats; rat ID, day 4): ~5.7 fold
specific activity [1]: > 65,000 USP Units/mg protein
